Laboratory results from US20210155689A1 (SHANGHAI PHARMAEXPLORER, published 2021).
Numbering of substitutions follows the chain as printed.

B1: 556F6B8 (LAG-3 mouse-human chimeric antibody) (antibody, V domains shown)
VH: RVQLKQSGPGLVQPSQSLSITCTVSGFSLIKYGVHWVRQSPGEGLEWLGVIWRGGITDYNAAFMSRLSITKDNSKSQVFFKMNSLQADDTAIYYCAKWDGPLAMDYWGQGTSVTVSS
VL: DIVMTQSHKFLSTSVGDRVSITCKASQDVGTTVAWYQQKPGQSPKLLIYWASTRHTGVPDRFTGSGSGTDFTLTISNVQSEDLADYFCQQYSSYPYTFGGGTKLEIK
notes: also called 556F8B8
B2: 105F1E10 (LAG-3 mouse-human chimeric antibody) (antibody, V domains shown)
VH: EVQLQQSGPELVKPGASVKMSCRASGYTFTDFKMHWMKQSHGKSLEWIGYIAPNNGGTAYNQKFRGKATLTVNESSNTAYMELRSLTSEDSAVYYCVDWDDVDYWGQGTTLTVSS
VL: DIKMTQSPSSMYASLGERVTITCKASQDINSYLSWFQQKSGKSPKTLIYRANRLVDGVPSRFSGSGSGQDYSLTISSLEYEDMGIYYCLQYVEFPLTFGAGTKLELK
B3: 405B8H3 (LAG-3 mouse-human chimeric antibody) (antibody, V domains shown)
VH: QVQLQQSGAELVRPGASVTLSCKASGYTFTDYEMHWVKQTPVHGLEWIGATDPETGNSAYNQKFKGKAIMTADKSSSTAYMELRSLTSEDSAVYYCISTGWNDWGQGTSLTVSS
VL: B2 VL with S40P, N52D, V55L, E81G, V92D, L96Y, A100G, L106I
notes: also called mouse-human chimeric antibody 405B8H3
B4: 409B11E12 (LAG-3 mouse-human chimeric antibody) (antibody, V domains shown)
VH: B3 VH with P41T, G56S, N57Y, M70L, S98A
VL: B2 VL with I2L, S40P, V55L, V92D, L96Y, A100G, L106I
B5: 409D4E10 (LAG-3 mouse-human chimeric antibody) (antibody, V domains shown)
VH: B3 VH with Y27N, G56D, S58T, M70L, A72T, S98T, T99S
VL: B2 VL with S40P, V55L, V92N, L96Y, A100G, L106I
B6: 556F6B8 mouse-human chimeric antibody (antibody, V domains shown)
VH: B1 VH
VL: B1 VL
notes: also called mAb123-556F6B8; 556F8B8
B7: 405B8H3 mouse-human chimeric antibody (antibody, V domains shown)
VH: B3 VH
VL: B2 VL with S40P, N52D, V55L, E81G, V92D, L96Y, A100G, L106I
notes: also called mAb103-405B8H3
B8: 105F1E10 mouse-human chimeric antibody (antibody, V domains shown)
VH: B2 VH
VL: B2 VL
notes: also called mAb009-105F1E10
B9: 409D4E10 mouse-human chimeric antibody (antibody, V domains shown)
VH: B3 VH with Y27N, G56D, S58T, M70L, A72T, S98T, T99S
VL: B2 VL with S40P, V55L, V92N, L96Y, A100G, L106I
notes: also called mAb112-409D4E10
B10: 409B11E12 mouse-human chimeric antibody (antibody, V domains shown)
VH: B3 VH with P41T, G56S, N57Y, M70L, S98A
VL: B2 VL with I2L, S40P, V55L, V92D, L96Y, A100G, L106I
notes: also called mAb104-409B11E12
B11: 556F6B8 (mouse antibody purified from hybridoma) (antibody, V domains shown)
VH: B1 VH
VL: B1 VL
notes: also called mAb123-556F6B8
B12: 405B8H3 (mouse antibody purified from hybridoma) (antibody, V domains shown)
VH: B3 VH
VL: B2 VL with S40P, N52D, V55L, E81G, V92D, L96Y, A100G, L106I
notes: also called mAb103-405B8H3; 405B81-13
B13: 105F1E10 (mouse antibody purified from hybridoma) (antibody, V domains shown)
VH: B2 VH
VL: B2 VL
notes: also called mAb009-105F1E10
B14: 409D4E10 (mouse antibody purified from hybridoma) (antibody, V domains shown)
VH: B3 VH with Y27N, G56D, S58T, M70L, A72T, S98T, T99S
VL: B2 VL with S40P, V55L, V92N, L96Y, A100G, L106I
notes: also called mAb112-409D4E10
B15: 409B11E12 (mouse antibody purified from hybridoma) (antibody, V domains shown)
VH: B3 VH with P41T, G56S, N57Y, M70L, S98A
VL: B2 VL with I2L, S40P, V55L, V92D, L96Y, A100G, L106I
notes: also called mAb104-409B11E12

Each binder was assayed against T1, mouse LAG-3 protein with hFc tag (mLAG-3-hFc protein) (mouse; human, UniProt Q61790 24-442) (assay: ELISA, mLAG-3-hFc coated; 0.0001 nM).
T1 construct: Made in HEK293 cells; also called mouse LAG-3 extracellular domain protein; not shown: human IgG Fc fragment (hFc) of the pCpC vector
T1 sequence: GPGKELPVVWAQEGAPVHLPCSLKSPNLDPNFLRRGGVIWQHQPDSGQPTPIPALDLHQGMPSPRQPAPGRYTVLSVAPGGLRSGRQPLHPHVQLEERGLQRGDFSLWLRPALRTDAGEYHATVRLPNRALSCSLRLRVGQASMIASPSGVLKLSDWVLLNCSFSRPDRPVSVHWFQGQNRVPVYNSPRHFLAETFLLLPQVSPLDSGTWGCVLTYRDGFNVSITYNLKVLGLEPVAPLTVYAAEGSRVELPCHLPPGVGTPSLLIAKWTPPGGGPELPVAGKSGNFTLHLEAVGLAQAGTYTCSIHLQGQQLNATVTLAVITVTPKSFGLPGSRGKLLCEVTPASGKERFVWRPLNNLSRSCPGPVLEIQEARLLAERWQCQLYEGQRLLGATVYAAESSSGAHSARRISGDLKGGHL
Experimental: (§1) The plate was sealed with plastic film and incubated overnight at 4° C. The plate was washed 2 times with the plate washing solution (PBS+0.01% Tween20) on the next day, and added with the blocking solution (PBS+0.01% Tween20+1% BSA) and blocked at room temperature for 1-2 hours. The blocking solution was poured out, and the plate was added with 50-100 μl of the antibody sample to be tested to each well, incubated at 37° C. for 1-2 hours, and washed 2-3 times with a plate washing solution (PBS+0.01% Tween20). HRP (horseradish peroxidase) labeled secondary antibody was added, and the plate was incubated at 37° C. for 1-2 hours, and washed 2-3 times with a plate washing solution (PBS+0.01% Tween20). 100 μl of TMB substrate was added to each well. After incubated at room temperature for 15-30 minutes, the plate was added with 100 μl of stop solution (1.0N HCl) to each well.
For B1, the OD450 was 0.14 OD450. B2 showed an OD450 of 0.09 OD450. With B3 the OD450 was 0.08 OD450. B4 was tested, and the OD450 was 0.09 OD450. In the case of B5, the OD450 is reported as 0.1 OD450.

Target: T2, hFc tagged monkey LAG-3 protein (cLAG-3-hFc protein) (monkey; human)
T2 construct: Made in HEK293 cells; also called monkey LAG-3 extracellular domain protein; not shown: human IgG Fc fragment (hFc) of the pCpC vector
T2 chain: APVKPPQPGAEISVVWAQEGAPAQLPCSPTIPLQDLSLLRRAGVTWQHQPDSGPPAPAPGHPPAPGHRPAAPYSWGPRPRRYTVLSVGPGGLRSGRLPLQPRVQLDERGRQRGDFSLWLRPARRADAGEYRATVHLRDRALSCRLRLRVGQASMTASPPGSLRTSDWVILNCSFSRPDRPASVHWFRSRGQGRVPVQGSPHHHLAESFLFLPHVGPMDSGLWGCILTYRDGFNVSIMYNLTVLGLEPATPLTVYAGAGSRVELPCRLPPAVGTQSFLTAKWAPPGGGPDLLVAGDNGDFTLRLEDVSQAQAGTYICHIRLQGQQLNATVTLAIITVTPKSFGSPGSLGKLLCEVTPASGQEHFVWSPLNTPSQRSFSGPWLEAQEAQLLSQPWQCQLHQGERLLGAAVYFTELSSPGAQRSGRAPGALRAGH
Assay: ELISA, cLAG-3-hFc coated; 66.6670 nM
Experimental: as §1
Work on B1 yielded an OD450 of 3.72 OD450. Binder B2 has an OD450 of 3.59 OD450. B3 showed an OD450 of 3.46 OD450. For B4, the OD450 was 3.44 OD450. For B5, the OD450 was 3.77 OD450.

What follows are binders tested against T1, mouse LAG-3 protein with hFc tag … (assay: ELISA, mLAG-3-hFc coated; 66.6670 nM).
Experimental: as §1
With B1 the OD450 was 1.08 OD450. With B2 the OD450 was 0.54 OD450. Binder B3 has an OD450 of 1.1 OD450. For B4, the OD450 was 1.1 OD450. B5 was tested, and the OD450 was 1.06 OD450.

Each binder was assayed against T3, human LAG-3 on cells (HEK293-hLAG-3 stable cell line) (human, UniProt P18627 23-525) (assay: FACS, HEK293-hLAG-3, antibody 0.320 nM).
T3 sequence: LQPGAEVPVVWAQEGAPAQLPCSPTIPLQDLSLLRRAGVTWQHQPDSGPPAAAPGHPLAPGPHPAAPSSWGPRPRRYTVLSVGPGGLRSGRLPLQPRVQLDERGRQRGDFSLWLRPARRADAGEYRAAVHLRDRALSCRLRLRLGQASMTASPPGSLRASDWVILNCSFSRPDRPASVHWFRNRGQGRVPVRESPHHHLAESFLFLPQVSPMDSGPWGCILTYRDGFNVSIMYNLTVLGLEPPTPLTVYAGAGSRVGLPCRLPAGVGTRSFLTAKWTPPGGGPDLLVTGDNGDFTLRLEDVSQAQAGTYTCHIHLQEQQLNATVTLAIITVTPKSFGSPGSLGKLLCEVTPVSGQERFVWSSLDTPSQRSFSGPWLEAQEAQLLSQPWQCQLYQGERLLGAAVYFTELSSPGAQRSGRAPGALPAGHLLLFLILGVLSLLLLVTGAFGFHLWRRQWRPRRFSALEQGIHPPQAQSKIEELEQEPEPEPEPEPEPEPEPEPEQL
Text: (§2) The pIRES plasmid with the monkey-derived full-length gene was transfected into the HEK293 cell line to construct a HEK293 stable cell line containing monkey LAG-3 (herein referred to as HEK293-cLAG-3 stable cell line). The HEK293-hLAG-3 stable cell line and HEK293-cLAG-3 stable cell line were expanded in a T-75 cell culture flask to a 90% confluence. The medium was aspirated, and the cells were washed with HBSS (Hanks' Balanced Salt Solution) 1-2 times, then treated with a enzyme-free cell dissociation fluid (Versene solution: Life technology) and the cells were collected. The cells were washed with HBSS buffer for 1-2 times. After counted, the cells were diluted with HBSS to 1-2×10⁶ cells per ml, added with 1% goat serum blocking solution, incubated on ice for 20-30 minutes, and then washed with HBSS for 2 times by centrifugation. The collected cells were suspended in the FACS buffer (HBSS+1% BSA) to 2×10⁶ cells/ml, added as 100 microliters per well to a 96-well FACS reaction plate, added with 100 microliters per well of the antibody sample to be tested, incubated on ice for 1-2 hours. The plate was washed twice with the FACS buffer by centrifugation, added with 100 microliters of fluorescent (Alexa 488)-labeled secondary antibodies per well, and incubated on ice for 0.5-1.0 hours. The plate was washed 2-3 times with FACS buffer by centrifugation, added with 100 μl fixative solution (4% Paraformaldehyde) per well to suspend the cells. 5-10 minutes later, it was washed 1-2 times with FACS buffer by centrifugation. The cells were suspended with 100 microliters of FACS buffer, FACS (FACSCalibur, BD) was used for detection and the results were analyzed.
B6 showed a Mean fluorescence intensity of 14.3. B7 showed a Mean fluorescence intensity of 17.3. In the case of B8, the Mean fluorescence intensity is reported as 10.7. In the case of B9, the Mean fluorescence intensity is reported as 15.7. For B10, the Mean fluorescence intensity was 16.8.

The binders below were run against T4, human LAG-3 (full length, on the cell surface) (human, UniProt P18627 23-525) (assay: FACS, HEK293-hLAG-3; 0.000 nM).
T4 construct: Full-length human LAG-3 expressed on cells; also called HEK293-hLAG-3; HEK293 cells transfected with LAG-3 gene
T4 sequence: T3 sequence
Text: as §2
B11 was tested, and the Mean fluorescence intensity was 2.8 MFI. In the case of B12, the Mean fluorescence intensity is reported as 3.7 MFI. In the case of B13, the Mean fluorescence intensity is reported as 3.7 MFI. With B14 the Mean fluorescence intensity was 2.8 MFI. B15 gave a Mean fluorescence intensity of 2.5 MFI.
